# Measurements as given in the supplement of paper PMC9112550, “Optimization of the antimicrobial peptide Bac7 by deep mutational scanning” (BMC Biology, 2022).
# Test system: Escherichia coli TOP10
# Experiment: shrunken log2 fold change of peptide-encoding DNA abundance (4.5 h post-induction vs induction); higher = less antimicrobial activity (less host growth inhibition)
# Conditions: time post-induction: 4.5 h; library: site-saturation at positions 5, 18, 19, 20
# 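Note: peptides expressed intracellularly from a pBAD plasmid library in pooled LB shake-flask culture, induced with 0.3% L-arabinose, DNA abundance read by NGS, three biological replicates, DESeq2 with apeglm shrinkage.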
row,Sequence,shrunken log2 fold change
1,RRIRTRPPRLPRPRPRPDPEPRP,0.155
2,RRIRRRPPRLPRPRPRPVLMPRP,0.146
3,RRIRWRPPRLPRPRPRPEYEPRP,-0.0434
4,RRIRLRPPRLPRPRPRPCSEPRP,0.0739
5,RRIRVRPPRLPRPRPRPLCFPRP,0.258
6,RRIRFRPPRLPRPRPRPNPVPRP,-0.117
7,RRIRYRPPRLPRPRPRPQTFPRP,-0.459
8,RRIRTRPPRLPRPRPRPGVFPRP,-0.0409
9,RRIRNRPPRLPRPRPRPGLWPRP,0.737
10,RRIRPRPPRLPRPRPRPGPTPRP,0.0907
11,RRIRQRPPRLPRPRPRPFYTPRP,-0.589
12,RRIRMRPPRLPRPRPRPHENPRP,0.218
13,RRIRNRPPRLPRPRPRPFVTPRP,-0.274
14,RRIRDRPPRLPRPRPRPVHNPRP,-0.585
15,RRIRLRPPRLPRPRPRPFHHPRP,-0.147
16,RRIRLRPPRLPRPRPRPKCWPRP,0.323
17,RRIRVRPPRLPRPRPRPMWRPRP,0.127
18,RRIRHRPPRLPRPRPRPSNFPRP,-0.108
19,RRIRHRPPRLPRPRPRPKWLPRP,0.333
20,RRIRWRPPRLPRPRPRPLVGPRP,0.282
21,RRIRERPPRLPRPRPRPFTLPRP,-0.21
22,RRIRTRPPRLPRPRPRPYFIPRP,-0.872
23,RRIRTRPPRLPRPRPRPHGVPRP,-0.00162
24,RRIRKRPPRLPRPRPRPCKPPRP,-0.00919
25,RRIRERPPRLPRPRPRPFTWPRP,-0.737

row,Sequence,shrunken log2 fold change
1,RRIRARPPRLPRPRPRPDIEPRP,-0.0212
2,RRIRDRPPRLPRPRPRPADWPRP,0.305
3,RRIRQRPPRLPRPRPRPHQGPRP,0.0866
4,RRIRKRPPRLPRPRPRPGWCPRP,0.639
5,RRIRYRPPRLPRPRPRPAQCPRP,-0.0254
6,RRIRERPPRLPRPRPRPTTFPRP,-0.367
7,RRIRGRPPRLPRPRPRPFRCPRP,0.0939
8,RRIRMRPPRLPRPRPRPTTWPRP,0.745
9,RRIRFRPPRLPRPRPRPSMFPRP,-0.505
10,RRIRLRPPRLPRPRPRPTDGPRP,-0.0875
11,RRIRARPPRLPRPRPRPFMTPRP,0.178
12,RRIRERPPRLPRPRPRPGPGPRP,0.268
13,RRIRKRPPRLPRPRPRPQNAPRP,-0.0942
14,RRIRCRPPRLPRPRPRPLRDPRP,0.948
15,RRIRHRPPRLPRPRPRPLIVPRP,-0.314
16,RRIRFRPPRLPRPRPRPSAGPRP,0.192
17,RRIRLRPPRLPRPRPRPVGCPRP,0.226
18,RRIRGRPPRLPRPRPRPTNTPRP,0.676
19,RRIRERPPRLPRPRPRPGAWPRP,-0.0396
20,RRIRERPPRLPRPRPRPCPEPRP,-0.324
21,RRIRLRPPRLPRPRPRPCNKPRP,-0.686
22,RRIRFRPPRLPRPRPRPRFIPRP,-0.498
23,RRIRNRPPRLPRPRPRPPFIPRP,-0.551
24,RRIRQRPPRLPRPRPRPCCNPRP,-0.0838
25,RRIRERPPRLPRPRPRPYQRPRP,-0.876

row,Sequence,shrunken log2 fold change
1,RRIRSRPPRLPRPRPRPTIWPRP,0.393
2,RRIRYRPPRLPRPRPRPMIIPRP,-0.138
3,RRIRQRPPRLPRPRPRPCPVPRP,-0.477
4,RRIRIRPPRLPRPRPRPFLDPRP,-0.888
5,RRIRSRPPRLPRPRPRPYFAPRP,-0.645
6,RRIRRRPPRLPRPRPRPMNYPRP,-0.0341
7,RRIRGRPPRLPRPRPRPTGCPRP,0.562
8,RRIRHRPPRLPRPRPRPDAEPRP,0.205
9,RRIRMRPPRLPRPRPRPFWFPRP,0.132
10,RRIRSRPPRLPRPRPRPTAEPRP,0.825
11,RRIRARPPRLPRPRPRPEHQPRP,0.399
12,RRIRMRPPRLPRPRPRPIIYPRP,-0.732
13,RRIRRRPPRLPRPRPRPCSAPRP,0.34
14,RRIRWRPPRLPRPRPRPDPFPRP,-0.0639
15,RRIRSRPPRLPRPRPRPAGLPRP,-0.0231
16,RRIRFRPPRLPRPRPRPCHDPRP,0.236
17,RRIRDRPPRLPRPRPRPKQKPRP,0.03
18,RRIRYRPPRLPRPRPRPLSKPRP,-1.03
19,RRIRIRPPRLPRPRPRPWEQPRP,0.107
20,RRIRQRPPRLPRPRPRPDIPPRP,-0.811
21,RRIRVRPPRLPRPRPRPTAMPRP,0.0686
22,RRIRCRPPRLPRPRPRPIFAPRP,0.373
23,RRIRCRPPRLPRPRPRPHAYPRP,-0.759
24,RRIRSRPPRLPRPRPRPTNQPRP,-0.311
25,RRIRHRPPRLPRPRPRPSYTPRP,-0.714

row,Sequence,shrunken log2 fold change
1,RRIRERPPRLPRPRPRPQEHPRP,-0.179
2,RRIRPRPPRLPRPRPRPVDSPRP,-0.177
3,RRIRARPPRLPRPRPRPHFYPRP,0.107
4,RRIRRRPPRLPRPRPRPVGPPRP,-0.0193
5,RRIRWRPPRLPRPRPRPLNGPRP,-0.0406
6,RRIRNRPPRLPRPRPRPANYPRP,-0.0161
7,RRIRMRPPRLPRPRPRPMWFPRP,0.233
8,RRIRQRPPRLPRPRPRPGFPPRP,-0.0539
9,RRIRERPPRLPRPRPRPERTPRP,0.0163
10,RRIRERPPRLPRPRPRPIKGPRP,-0.0123
11,RRIRKRPPRLPRPRPRPCHQPRP,0.124
12,RRIRNRPPRLPRPRPRPAGSPRP,0.086
13,RRIRLRPPRLPRPRPRPNYTPRP,-0.91
14,RRIRMRPPRLPRPRPRPVKCPRP,-0.0525
15,RRIRSRPPRLPRPRPRPMPVPRP,0.0216
16,RRIRDRPPRLPRPRPRPQLDPRP,0.207
17,RRIRPRPPRLPRPRPRPEYDPRP,0.101
18,RRIRARPPRLPRPRPRPLGGPRP,1.01
19,RRIRHRPPRLPRPRPRPKFEPRP,-0.125
20,RRIRLRPPRLPRPRPRPWFRPRP,-0.252
21,RRIRWRPPRLPRPRPRPNSGPRP,0.0642
22,RRIRERPPRLPRPRPRPELFPRP,0.201
23,RRIRVRPPRLPRPRPRPDRNPRP,-0.162
24,RRIRQRPPRLPRPRPRPECVPRP,0.386
25,RRIRARPPRLPRPRPRPQVNPRP,-0.196

row,Sequence,shrunken log2 fold change
1,RRIRERPPRLPRPRPRPYPNPRP,-1.19
2,RRIRKRPPRLPRPRPRPNSGPRP,0.0179
3,RRIRIRPPRLPRPRPRPSYLPRP,-0.831
4,RRIRKRPPRLPRPRPRPYLSPRP,-0.119
5,RRIRMRPPRLPRPRPRPMTEPRP,0.12
6,RRIRRRPPRLPRPRPRPPGMPRP,0.821
7,RRIRVRPPRLPRPRPRPMGRPRP,-0.0203
8,RRIRRRPPRLPRPRPRPLGSPRP,0.0898
9,RRIRNRPPRLPRPRPRPENGPRP,-0.0225
10,RRIRIRPPRLPRPRPRPHNRPRP,-0.573
11,RRIRERPPRLPRPRPRPFIGPRP,-0.0528
12,RRIRWRPPRLPRPRPRPRTQPRP,0.276
13,RRIRPRPPRLPRPRPRPYASPRP,-0.0775
14,RRIRQRPPRLPRPRPRPSIFPRP,-0.635
15,RRIRWRPPRLPRPRPRPSIIPRP,-0.31
16,RRIRTRPPRLPRPRPRPCSAPRP,-0.413
17,RRIRWRPPRLPRPRPRPTRKPRP,-0.0294
18,RRIRNRPPRLPRPRPRPWSVPRP,-0.328
19,RRIRYRPPRLPRPRPRPETPPRP,0.156
20,RRIRWRPPRLPRPRPRPVGNPRP,0.0858
21,RRIRRRPPRLPRPRPRPEAWPRP,0.14
22,RRIRLRPPRLPRPRPRPPQRPRP,0.26
23,RRIRGRPPRLPRPRPRPPWLPRP,0.849
24,RRIRFRPPRLPRPRPRPVDLPRP,-0.102
25,RRIRIRPPRLPRPRPRPPPFPRP,0.481

row,Sequence,shrunken log2 fold change
1,RRIRRRPPRLPRPRPRPAHDPRP,0.873
2,RRIRLRPPRLPRPRPRPKTYPRP,-0.511
3,RRIRYRPPRLPRPRPRPLMLPRP,-1.32
4,RRIRFRPPRLPRPRPRPFIDPRP,-0.389
5,RRIRMRPPRLPRPRPRPQEDPRP,-0.0231
6,RRIRSRPPRLPRPRPRPERNPRP,-0.098
7,RRIRGRPPRLPRPRPRPDEEPRP,1.76
8,RRIRHRPPRLPRPRPRPEIKPRP,-0.264
9,RRIRSRPPRLPRPRPRPDKMPRP,-0.15
10,RRIRARPPRLPRPRPRPHCMPRP,0.19
11,RRIRSRPPRLPRPRPRPSFQPRP,-0.282
12,RRIRCRPPRLPRPRPRPDYMPRP,-0.133
13,RRIRWRPPRLPRPRPRPFFVPRP,0.173
14,RRIRVRPPRLPRPRPRPCKRPRP,-0.196
15,RRIRTRPPRLPRPRPRPCNNPRP,-0.276
16,RRIRDRPPRLPRPRPRPVVHPRP,0.0965
17,RRIRTRPPRLPRPRPRPALEPRP,0.122
18,RRIRYRPPRLPRPRPRPPINPRP,-0.378
19,RRIRERPPRLPRPRPRPITTPRP,-0.03
20,RRIRARPPRLPRPRPRPKLFPRP,0.233
21,RRIRTRPPRLPRPRPRPCGRPRP,0.155
22,RRIRCRPPRLPRPRPRPGNSPRP,-0.429
23,RRIRQRPPRLPRPRPRPKPEPRP,-0.0759
24,RRIRLRPPRLPRPRPRPMGQPRP,0.0212
25,RRIRVRPPRLPRPRPRPKSAPRP,0.172
